Results reported in patent US20170312350A1 (published 2017).

Assays:
[1] = molecular target: T1, IGF2BP3 (IGF2BP3-001) peptide on HLA-A2 (human); experiment: Target peptide titration on loaded target cells, IFN-gamma release; RNA-electroporated primary CD8+ T cells; full-length, on cells
T1 peptide: KIQEILTQV

[2] = molecular target: T2, IGF2BP3-001 A8 (alanine-substitution variant of IGF2BP3-001) peptide on HLA-A*02, assumed (human); experiment: cytokine release
T2 peptide: KIQEILTAV

[3] = molecular target: T3, IGF2BP3-001 A9 (alanine-substitution variant of IGF2BP3-001) peptide on HLA-A*02, assumed (human); experiment: cytokine release
T3 peptide: KIQEILTQA

[4] = molecular target: T4, IGF2BP3-001 A2 (alanine-substitution variant of IGF2BP3-001) peptide on HLA-A*02, assumed (human); experiment: cytokine release
T4 peptide: KAQEILTQV

B1: TCR R10P1A7 (TCR, V domains shown)
Valpha: GEDVEQSLFLSVREGDSSVINCTYTDSSSTYLYWYKQEPGAGLQLLTYIFSNMDMKQDQRLTVLLNKKDKHLSLRIADTQTGDSAIYFCAESKETRLMFGDGTQLVVKP
Vbeta: GAVVSQHPSWVICKSGTSVKIECRSLDFQATTMFWYRQFPKQSLMLMATSNEGSKATYEQGVEKDKFLINHASLTLSTLTVTSAHPEDSSFYICSARAGGHEQFFGPGTRLTVL
[1]
  EC50 of peptide: ~1 nM
[2]
  binding result: recognises
[3]
  binding result: recognises
[4]
  binding result: recognises
